In this assay the target is Bcl-xL, Q07817. Nature of the assay: peptide SPOT array, c-Myc-tagged receptor at 1 uM or 100 nM, anti-c-Myc-Cy3.
Bcl-xL, Q07817, sequence (Q07817 1-209): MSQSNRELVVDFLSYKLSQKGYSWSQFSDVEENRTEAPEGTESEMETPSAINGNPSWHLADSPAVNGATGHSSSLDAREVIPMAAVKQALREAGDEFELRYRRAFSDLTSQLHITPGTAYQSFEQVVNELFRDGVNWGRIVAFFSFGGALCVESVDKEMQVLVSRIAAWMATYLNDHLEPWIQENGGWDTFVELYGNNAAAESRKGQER
SCMATVIHNPLKALLDQFYKEAIEHC [DPF3]: the SPOT signal as a fraction of Bim BH3's signal on the same receptor and array is 0.03.
Take VENTTDLASILIKDADRLNSGCYELK [TTN]: the SPOT signal as a fraction of Bim BH3's signal on the same receptor and array worked out at 0.02.
Molecule DTIFHRAAVRLRDLLGAILRHARRQA [BRPF3] registered an SPOT signal as a fraction of Bim BH3's signal on the same receptor and array of 0.55.
The result for MDYVGGYALCLDMTARDVQDECKKKG [FAHD1] reads 0.03.
In turn, GERLRQSGERLRQSGERFKKSISNAA [MURC] yielded an SPOT signal as a fraction of Bim BH3's signal on the same receptor and array of 0.44.
RQKIQRTARKLFGLSVRCRHNPNHQL [DBC1] had an SPOT signal as a fraction of Bim BH3's signal on the same receptor and array of 0.69.
FLRINTIAMRLLAYALDYWSKGQLKA [PANK2]: the SPOT signal as a fraction of Bim BH3's signal on the same receptor and array was found to be 0.19.
Turning to TGGLPELASRLTRISAVLLEGMNKET [TCP11L2], the SPOT signal as a fraction of Bim BH3's signal on the same receptor and array turned out to be 0.03.
The result for VTQLRSLVIDLERTAKELDTNTLKNA [TRIM40] reads 0.03; that for VAALEQAAYKLDAYSKKLEAKYKKLE [BLOC1S2], 0.25.
Then RAEIEKMAEKINDIAYEMESRRTYLQ [C3orf15], with 0.03.
The result for ATKRETAATFDKKVAKEFGFQNNGFS [NPLOC4] reads 0.24; that for FVDINPLTGIILKAAKRFQINIYVKK [SCARB2], 0.16.
Consider NKELSELIEQLQKNADQVEKNIVDTE [PPL], for which the SPOT signal as a fraction of Bim BH3's signal on the same receptor and array came out at 0.03.
For PHQFDGVPDKLIQAAYQVKYNSKKMK [EVI5], the SPOT signal as a fraction of Bim BH3's signal on the same receptor and array was found to be 0.69.
The result for RMNLQTMVDTLQEAAQEADAIQEEMN [IFFO2] reads 0.02.
With EVRSSQFARKLWRSLRRISQVSSGET, the SPOT signal as a fraction of Bim BH3's signal on the same receptor and array was 0.62.
Then KVFLNKAADFIEELSSLFKSHSSKRI [MYPN], with 0.13; and EGTKIVLGKQDIESADEVRRKSLVLK [TAF1], with 0.05; and VFERCELARTLKRLLMDGYRGISLAN [LYZ], with 0.42.
The molecule LSSISELSARLHLWAFKMDYETTEKE [FHOD3] had an SPOT signal as a fraction of Bim BH3's signal on the same receptor and array of 0.03.
DISALTASNLDKKYAEKYSGILEGPV [FIGN] had an SPOT signal as a fraction of Bim BH3's signal on the same receptor and array of 0.02.
Molecule KNGHREVIRQLLRAGIEINRQTKTGT [CASKIN2] gave an SPOT signal as a fraction of Bim BH3's signal on the same receptor and array of 0.23.
On to QGDVQMAVSVLIVLGERVRKDIDEQT [WDR24], for which the SPOT signal as a fraction of Bim BH3's signal on the same receptor and array came to 0.02.
Then RYPILENPEILRKTLDDFLNRIALTD [CCNH], with 0.02; and VPFATELHERLAKDSEKLKEEIGKEL [APOA4], with 0.02.
Then GEGAEEAAKDLADIAAFFRSGFRKND [TRIO], with 0.03; and NEEGQQFALKLHRLLRTSFRNLKNKR, with 0.69; and NEEGQQFALKLHRLGRTSFRNLKNKR, with 0.95.
The result for RTNNYQLSDEDRKNGVELTSLRQKVA [GRIPAP1] reads 0.05; that for IKKSVTKGEMLKIVLKRFREHFPEIL [MAGEB2], 0.2; that for FGTTLKNCRHLLECAKELDVQIIGVK [AZIN1], 0.03.
On to WDEMNVLAHGLLQLGQGLREHAERTR [ANGPTL4], for which the SPOT signal as a fraction of Bim BH3's signal on the same receptor and array is 0.04.
Then FTGNNTAVQEDKRVSEQFTATFRRKA [TUBB4Q], with 0.41; and LKELDLSGNSDSHSAVKSLCKTLRRP [NLRP1], with 0.22; and LTKAERLSKELLQCGRIIKEEWIEIE [TTC23], with 0.03.
The result for LDDVKILANGLLQLGHGLKDFVHKTK [ANGPTL3] reads 0.04; that for PVQVQQYIKKLYILGGEVAESAQKCT [PAXIP1], 0.05; that for EVRSSQFARKLWRSSRRISQVSSGET, 0.86.
The result for LFQLKFTAKQLEKLAKKAEKDSKAEQ [CHMP1A] reads 0.18.
Molecule TEEMKHNVEKLNELSKNLNRAFAEFE [DNAH3] had an SPOT signal as a fraction of Bim BH3's signal on the same receptor and array of 0.02.
Then GHIYLGAVNRIYKLSSDLKVLVTHET [PLXNA4], with 0.08; and VGNVDECGKKLVEVARRCRDEAIAAC [XXXX], with 0.02.
SRELEEISERLEEAGGATSVQIEMNK [MYH6]: the SPOT signal as a fraction of Bim BH3's signal on the same receptor and array was found to be 0.02.
The result for PFDCRDYAVVLRKYLDKIYNISMKHP reads 0.51; that for GFANHDVVEVDRNAGQVVHLTLVRRK [INADL], 0.08; that for DLSSTFVSLADRKVGDWPLSARREKG [TTC31], 0.21.
Molecule VYILRKAARRLAQVLRAAGVRVGLLS [CACNA1G] came in with an SPOT signal as a fraction of Bim BH3's signal on the same receptor and array of 0.67.
The result for FSEFIGMIQEIQQAAERLERNFVDSR [RNF123] reads 0.03; that for PFDCRDYAVVDRKYADKIYNISMKHP, 0.36.
The molecule SQDVERFCRQLSSMASKLIISPFTLV [ABCD4] yielded an SPOT signal as a fraction of Bim BH3's signal on the same receptor and array of 0.05.
Then FDNAMLRARRLYQLAYDTYQEFEEAY [GH2], with 0.04.

These data come from article PMC4072508, “Genome-Wide Prediction and Validation of Peptides That Bind Human Prosurvival Bcl-2 Proteins” (PLoS Computational Biology, 2014).
